{"source": "patent US20180360879A1", "about": "(CANCURE, published 2018)", "binders": {"B1": {"name": "recombinant mouse 4-1BB/Fc chimera (Fc fusion, UniProt P20334 24-187, looked up)", "chain": "VQNSCDNCQPGTFCRKYNPVCKSCPPSTFSSIGGQPNCNICRVCAGYFRFKKFCSSTHNAECECIEGFHCLGPQCTRCEKDCRPGQELTKQGCKTCSLGTFNDQNGTGVCRPWTNCSLDGRSVLKTGTTEKDVVCGPPVVSFSPSTTISVTPEGGPGGHSLQVL", "notes": "Bought reagent; It calls it a 'primary antibody', but it is the receptor 4-1BB fused to Fc; also called 4-1BB/TNFRSF9/Fc Chimera; 41BB/TNFRSF9/Fc chimera; not shown: Fc part of the chimera"}}, "target": "T1, murine 4-1BBL expressed on the surface of B16-F10 and B16-F10/4-1BBL melanoma cells (mouse, UniProt P41274 1-309)", "T1 construct": "whole, on cells; also called 4-1BB ligand; mouse 4-1BBL", "T1 sequence (looked up)": "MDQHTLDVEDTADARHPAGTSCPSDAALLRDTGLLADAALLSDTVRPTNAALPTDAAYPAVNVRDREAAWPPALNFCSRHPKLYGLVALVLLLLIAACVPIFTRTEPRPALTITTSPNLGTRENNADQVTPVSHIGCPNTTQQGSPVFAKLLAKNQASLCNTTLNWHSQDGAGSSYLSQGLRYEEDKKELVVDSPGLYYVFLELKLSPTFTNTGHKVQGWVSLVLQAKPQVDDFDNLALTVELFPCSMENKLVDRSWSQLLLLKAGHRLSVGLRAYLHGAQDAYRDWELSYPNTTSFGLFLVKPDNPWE", "assay": "flow cytometry; cells incubated with the chimera, detected with PE-conjugated IgG Fcγ Ab", "description": "FIG. 2. B16-F10-4-1BBL cells express functional 4-1BBL binding to 4-1BB. Cells were incubated with 41BB/TNFRSF9/Fc chimera and stained using a PE-conjugated IgG Fcγ Ab to detect binding to 4-1BBL, measured using the FACSCalibur flow cytometer. The black and the green histograms represent the unstained control samples of B16-F10 and B16-F10-4/1BBL sorted cells respectively. The red and the purple histograms show the B16-F10 and B16-F10/4-1BBL cells respectively stained only with the IgG Fcγ PE secondary Ab. The blue histogram represents the B16-F10 cells incubated with the 4-1BB/TNFRSF9/Fc Chimera and stained with the IgG Fcγ PE secondary Ab. The maroon histogram depicts populations of cells further subjected to sorting for 4-1BBL, re-expanded in culture before immunostaining with the 41BB/TNFRSF9/Fc chimera and the IgG Fcγ PE secondary Ab\nTo further test that the 4-1BBL expressed on the B16-F10/4-1BBL cells was intact and functional, an additional assay was performed for the binding of 4-1BBL on the cells to its receptor, 4-1BB. […]\nTransfection efficiency was determined by staining B16-F10 sublines with antibodies to detect the cell surface markers, B7.1 and 4-1BBL. […] The presence of both of these cell surface molecules were detected using either flow cytometer. […]"}
{"binder": "B1", "values": [{"measurement": "binding result", "value": "binds"}]}
